Test results from patent publication US20110237779A1.
pIC50: −log10 of the molar value.

Molecular target: human IgE (human) (UniProt P01854)
Assay: phage ELISA, solution competition: Fab-phage incubated with serially diluted IgE, unbound phage captured on IgE-coated wells; IC50 used as affinity estimate

human IgE (human), sequence (P01854 other isoform, or with tags, fused parts or gaps): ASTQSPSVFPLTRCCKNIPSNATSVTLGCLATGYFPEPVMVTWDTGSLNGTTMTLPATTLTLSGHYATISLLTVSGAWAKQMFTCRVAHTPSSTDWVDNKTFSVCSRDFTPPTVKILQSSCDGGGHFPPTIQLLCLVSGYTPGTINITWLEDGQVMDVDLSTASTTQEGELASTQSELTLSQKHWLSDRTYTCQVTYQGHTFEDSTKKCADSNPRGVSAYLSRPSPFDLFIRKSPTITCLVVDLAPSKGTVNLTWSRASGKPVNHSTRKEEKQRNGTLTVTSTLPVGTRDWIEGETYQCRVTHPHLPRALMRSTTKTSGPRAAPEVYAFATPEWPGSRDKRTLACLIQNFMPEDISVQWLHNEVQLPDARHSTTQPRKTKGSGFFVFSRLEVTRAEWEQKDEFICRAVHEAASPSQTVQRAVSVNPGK

Substance: Mae11-based hypervariable region graft with S34K and W35L in CDR-H1 of the VH domain (Fab displayed on phage)
- pIC50: 8.40
